Where a chain is given by its changes, count along the chain named. Blank lines part the entries; values can stand above or below the binder they belong to.
Assays:
[1] = target: T1, THP-1 lysate derived human trimeric ARG2 (human, UniProt P78540 23-354, limits assumed); experiment: cell-based or functional assay
T1 sequence (looked up): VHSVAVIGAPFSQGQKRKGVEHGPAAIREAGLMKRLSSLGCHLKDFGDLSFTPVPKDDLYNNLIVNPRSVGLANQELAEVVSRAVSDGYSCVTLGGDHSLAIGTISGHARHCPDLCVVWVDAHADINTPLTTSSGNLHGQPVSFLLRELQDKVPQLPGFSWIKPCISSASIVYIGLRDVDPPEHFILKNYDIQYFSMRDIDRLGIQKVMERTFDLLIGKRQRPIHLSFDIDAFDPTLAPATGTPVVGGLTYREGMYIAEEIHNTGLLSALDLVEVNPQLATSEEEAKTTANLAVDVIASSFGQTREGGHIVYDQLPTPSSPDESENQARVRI

[2] = target: T2, recombinant human monomeric ARG2 (human, UniProt P78540 23-354); experiment: cell-based or functional assay
T2 sequence (looked up): T1 sequence (looked up) with E253Q

[3] = target: T1, THP-1 lysate derived human trimeric ARG2; experiment: cell-based or functional assay; remark: listed apart in the source
[4] = target: T3, recombinant human trimeric ARG2 enzyme (construct not given) (human, UniProt P78540 23-354); experiment: cell-based or functional assay
T3 sequence (looked up): T1 sequence (looked up)

[5] = target: T4, biotinylated recombinant human trimeric ARG1 enzyme (Avi-huARG1-His10) (human, UniProt P05089 1-322, biotinylated in HTRF and streptavidin BLI assays); experiment: BLI (OctetRED), His-tagged ligand on anti-His surface
T4 construct: also called Human ARG1; recombinant ARG1
T4 sequence: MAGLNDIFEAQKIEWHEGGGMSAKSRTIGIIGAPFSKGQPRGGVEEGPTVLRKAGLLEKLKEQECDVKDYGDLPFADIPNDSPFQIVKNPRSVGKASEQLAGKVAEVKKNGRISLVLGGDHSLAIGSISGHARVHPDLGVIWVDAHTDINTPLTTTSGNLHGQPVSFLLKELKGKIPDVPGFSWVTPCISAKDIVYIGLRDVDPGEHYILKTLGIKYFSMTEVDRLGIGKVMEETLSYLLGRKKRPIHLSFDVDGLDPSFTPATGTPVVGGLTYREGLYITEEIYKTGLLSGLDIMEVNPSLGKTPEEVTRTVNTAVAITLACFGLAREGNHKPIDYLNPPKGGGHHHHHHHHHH

[6] = target: T5, biotinylated recombinant human trimeric ARG2 enzyme (Avi-huARG2-His10) (human, UniProt P78540 23-354, biotinylated); experiment: BLI (OctetRED) extended assay, bio-ARG2 on streptavidin, Fab as analyte, 1:1 fit
T5 construct: also called avi-Arg2-His10; bio-ARG2
T5 chain: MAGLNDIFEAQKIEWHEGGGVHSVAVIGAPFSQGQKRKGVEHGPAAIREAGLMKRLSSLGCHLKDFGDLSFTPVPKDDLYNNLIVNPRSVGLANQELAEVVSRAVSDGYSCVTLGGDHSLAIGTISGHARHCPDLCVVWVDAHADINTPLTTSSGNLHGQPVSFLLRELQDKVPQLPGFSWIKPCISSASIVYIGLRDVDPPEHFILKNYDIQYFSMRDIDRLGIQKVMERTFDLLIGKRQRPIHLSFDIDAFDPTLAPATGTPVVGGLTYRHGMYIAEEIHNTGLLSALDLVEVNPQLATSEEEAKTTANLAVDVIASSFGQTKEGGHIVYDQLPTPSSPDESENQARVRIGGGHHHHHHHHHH
Method: (§1) The affinities of the second-generation antibodies to human ARG2 were measured on the OctetRED system. A screening assay which stably captures His-tagged ARG2 as the ligand on an anti-His surface was utilised to screen the second-generation candidates as Fabs at an analyte range of 1.8 to 120 nM, with an association time of 5 minutes and a dissociation time of 10 minutes. Sensors were regenerated using 10 mM glycine pH 1.5 after each cycle. Based on this assay, six candidates with estimated affinities in the sub-nanomolar range were identified, and they were further profiled using an extended assay which is more suitable for antibodies of high affinities. In the extended assay, the association and dissociation times were extended to 10 and 40 minutes respectively, using a lower Fab analyte titration range of 0.47 to 30 nM, on a streptavidin surface which captures bio-ARG2 as the ligand. The sensorgrams were reference subtracted and fitted to the 1:1 binding model to estimate their binding affinities using the Octet analysis software.

[7] = target: T6, biotinylated recombinant cynomolgus monkey trimeric ARG2 enzyme (Avi-cynoARG2-His10) (cynomolgus monkey, UniProt P78540 23-354 (human entry), biotinylated); experiment: BLI (OctetRED) extended assay, biotinylated cyno ARG2 on streptavidin, Fab as analyte, 1:1 fit
T6 construct: also called cynomolgus ARG2
T6 chain: T5 chain with A189P, R231Q, H273E, K325R, D333G
Method: as §1
The affinities of some of these antibodies to cynomolgus ARG2 were determined using the same assay, and the derived kinetic parameters are shown in Table 21.

[8] = target: T4, biotinylated recombinant human trimeric …; experiment: HTRF direct binding assay, biotinylated recombinant human trimeric ARG1
[9] = target: T6, biotinylated recombinant cynomolgus …; experiment: HTRF direct binding assay, biotinylated recombinant cynomolgus trimeric ARG2, streptavidin cryptate and anti-c-myc-XL665, Delta F %

B2: C0021158 recombinant human IgG1 (antibody, V domains shown)
VH: EVQLLESGGGLVQPGGSLRLSCAASGFTFRYEVAAWVRQAPGKGLEWVSAISGPIPKGYYADSVKGRFTISRDNSKNTLYLQMNSLRAEDTAVYYCARLRADLGLYMDLWGRGTLVTVSS
VL: QSVLTQPPSVSAAPGQKVTISCSGSSSNIGNHYVSWYQQLPGTAPKLLIYDNSERTAGVPDRFSGSKSGTSATLGITGLQTGDEADYYCGTWDELTSNLVFGGGTKLTVL
THP-1 lysate ARG2 EIA IC50 [3]: 5.36 nM | EC50, In Presence of rhARG2 (T cell proliferation) [4]: 157 nM | Maximum % Proliferation, In Presence of rhARG2 [4]: 90% | THP-1 ARG2 EIA IC50 [1]: 2.3 nM

B4: C0021158 Fab (Fab, V domains shown)
VH: B2 VH
VL: B2 VL
notes: Human Fab
binding result [5]: no binding (tested: up to 120 nM Fab) | Kd [6]: 0.173 nM | koff [6]: 4.54e-05 s⁻¹ | kon [6]: 262000 M⁻¹ s⁻¹ | Kd [7]: 0.108 nM | koff [7]: 4.64e-05 s⁻¹ | kon [7]: 429000 M⁻¹ s⁻¹

B7: C0020065 scFv (scFv, V domains shown)
VH: GVNLRESGGGVVQPGRSLRLSCAASGFTFSSYAMHWVRQAPGKGLEWVAVISYDGSNKYYVDSVKGRFTISRDNSKNTLYLQMNSLRAEDTAVYYCARDSSQLWFDYWGRGTLVTVSS
VL: QSVVTQPPSVSGAPGQRVTISCTGSSSNIGTGYDVHWYQQLPGTAPKLLIYGNSNRPSGVPDRFSGSKSGTSASLAITGLQAEDEADYYCQSYDSSLSGSVVFGGGTQLTVL
notes: c-myc tagged scFv
binding result [8]: no binding (tested: log M -6 (1e-6 M)) | binding result [9]: binds

B9: C0021180 Fab (Fab, V domains shown)
VH: B2 VH
VL: QSVLTQPPTVSAAPGRKVTISCSGSSSNIGDHHVSWYQQLPGAAPKLLIYDTDHMASGIPDRFSGSRSGTSATLGITGLQTGDEADYYCGTWDSSLSALVFGGGTKLTVL
notes: Human Fab
binding result [5]: no binding (tested: up to 120 nM Fab) | Kd [6]: 0.437 nM | koff [6]: 0.000122 s⁻¹ | kon [6]: 278000 M⁻¹ s⁻¹ | Kd [7]: 0.353 nM | koff [7]: 0.000135 s⁻¹ | kon [7]: 381000 M⁻¹ s⁻¹

Continued, values first:

THP-1 ARG2 EIA IC50 [1]: 649 nM | IC50 (read off the curve) [2]: ~4 nM
B1: C0020187 recombinant human IgG1 (antibody, V domains shown)
VH: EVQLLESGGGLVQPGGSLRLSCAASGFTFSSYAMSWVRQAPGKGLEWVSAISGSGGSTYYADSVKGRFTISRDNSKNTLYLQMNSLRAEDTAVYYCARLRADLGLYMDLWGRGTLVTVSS
VL: B2 VL with T56P, A57S, V59I, E94S, L95S, T96L, N98A

THP-1 ARG2 EIA IC50 [1]: 3 nM
B3: C0021158-fgl2 recombinant human IgG1 (antibody, V domains shown)
VH: B2 VH
VL: B2 VL with S53A, V59I

binding result [5]: no binding (tested: up to 120 nM Fab) | Kd [6]: 0.288 nM | koff [6]: 4.17e-05 s⁻¹ | kon [6]: 145000 M⁻¹ s⁻¹ | Kd [7]: 0.173 nM | koff [7]: 4.43e-05 s⁻¹ | kon [7]: 257000 M⁻¹ s⁻¹
B5: C0021181 Fab (Fab, V domains shown)
VH: EVQLLESGGGLVRPGGSLRLSCAASEFTFRYDYHVWVRQAPGKGLEWVSAISGSGGSTYYADSVKSRFTISRDNSKNTLYLQMNSLRAEDTAVYYCARLRADLGLYMDLWGRGTLVTVSS
VL: B2 VL with T19A, I20V, N31S, A57S, V59I, K106R
notes: Human Fab

IC50 (read off the curve) [2]: ~6 nM
B6: C0020065 recombinant human IgG1 (antibody, V domains shown)
VH: B7 VH
VL: B7 VL

binding result [5]: no binding (tested: up to 120 nM Fab) | Kd [6]: 0.173 nM | koff [6]: 3.51e-05 s⁻¹ | kon [6]: 202000 M⁻¹ s⁻¹ | Kd [7]: 0.0754 nM | koff [7]: 3.12e-05 s⁻¹ | kon [7]: 414000 M⁻¹ s⁻¹
B8: C0021177 Fab (Fab, V domains shown)
VH: B2 VH with I55A
VL: B2 VL with V3E, S9T, V10A, N52T, S53T, E54V, R55L, T56S, A57S, V59I
notes: Human Fab

Source: US20220403048A1 (CANCER RESEARCH TECHNOLOGY, published 2022)
